From patent publication US7368293 (ROCKEFELLER UNIVERSITY, dated 2008)

Target: the molecule itself
Test: in vitro translation, gel mobility-shift with 32P APF-1 probe; inferred from heterodimer bands and absence of monomer complexes
Experimental: Since amino acids in the ligand binding domain of the estrogen receptor are known to be necessary for receptor dimerization and subsequent DNA binding (Kumar & Chambon, 1988; Fawell et al., 1990), we determined whether HNF-4 binds to its recognition site as a monomer or as a dimer. The full length cDNA (Xho I) was co-translated in vitro with either of the two truncated products that bind DNA (PflM I and Hga I) and the products were tested in the mobility-shift assay. When the full length and truncated transcripts were translated together, complexes of intermediate mobility were produced with both the APF-1 probe (lanes 3 and 5, FIG. 5D) and the −151 to −130 TTR probe (not shown).

B1: HNF-4 (hepatocyte nuclear factor 4), full length protein translated in vitro from pf7 cDNA (Xho I-cut template) (receptor)
chain: MDMADYSAALDPAYTTLEFENVQVLTMGNDTSPSEGANLNSSNSLGVSALCAICGDRATGKHYGASSCDGCKGFFRRSVRKNHMYSCRFSRQCVVDKDKRNQCRYCRLKKCFRAGMKKEAVQNERDRISTRRSSYEDISLPSINALLQAEVLSQQITSPISGINGDIRAKRIASITDVCESMKEQLLVLVEWAKYIPAFCELLLDDQVALLRAHAGEHLLLGATKRSMVFKDVLLLGNDYIVPRHCPELAEMSRVSIRILDELVLPFQELQIDDNEYACLKAIIFFDPDAKGLSDPGKIKRLRSQVQVSLEDYINDRQYDSRGRFGELLLLLPTLQSITWQMIEQIQFIKLFGMAKIDNLLQEMLLGGSASDAPHAHHPLHPHLMQEHMGTNVIVANTMPSHLTNGQMSTPETPQPSPPSGSGSESYKLLPGAITTIVKPPSAIPQPTITKQEAI
notes: Translated in rabbit reticulocyte lysate from T3/T7 transcripts of pf7 (rat liver cDNA); also called full length cDNA (Xho I); in vitro synthesized HNF-4
binding result: binds
